US7585952 (BIOTECHNOL S A, dated 2009)

What was measured:
human ErbB2 receptor [1] = target: T1, human ErbB2 receptor (human, UniProt P04626 23-1255); experiment: cell-based or functional assay
human ErbB2 receptor [2] = target: T1, human ErbB2 receptor; experiment: cell-based or functional assay; remark: listed apart in the source
[3] = target: T2, EGF receptor (EGFR, ErbB1) on A431 cells (human, UniProt P00533 25-1210); experiment: flow cytometry on A431 cells (EGFR at 2x10^6 receptors per cell)
T2 construct: whole, on cells; A431 cells also express ErbB2 at very low levels; also called homologous EGF receptor

Row | Binder | IC50 of inhibition of SKBR3 cell proliferation, 72 h (human ErbB2 receptor [1]) | Growth Inhibition (IC50, cfu/ml), BT-474 cells, 96 h (human ErbB2 receptor [2]) [cfu/ml] | Growth Inhibition (IC50, cfu/ml), MDA-MB453 cells, 96 h (human ErbB2 receptor [2]) [cfu/ml] | Growth Inhibition (IC50, cfu/ml), NIH 3T3 (ErbB2-trasf.) cells, 96 h (human ErbB2 receptor [2]) [cfu/ml] | Growth Inhibition (IC50, cfu/ml), SK-OV-3 cells, 96 h (human ErbB2 receptor [2]) [cfu/ml] | Growth Inhibition (IC50, cfu/ml), SKBR3 cells, 96 h (human ErbB2 receptor [2]) [cfu/ml] | binding result [3] | IC50 of inhibition of SKBR3 cell proliferation, expressed as scFv concentration in the phage preparation (human ErbB2 receptor [1]) [µg/mL] | antitumor activity on SKBR3 cells relative to soluble Erbicin (human ErbB2 receptor [1]) [fold]
1 | Erbicin (soluble human anti-ErbB2 scFv) (scFv, not shown: small tags and cut ends) scFv: QVQLLQSAAEVKKPGESLKISCKGSGYSFTSYWIGWVRQMPGKGLEWMGIIYPGDSDTRYSPSFQGQVTISADKSISTAYLQWSSLKASDTAVYYCARWRDSPLWGQGTLVTVSSGGGGSGGGGSGGSALQAVVTQEPSFSVSPGGTVTLTCGLSSGSVSTSYYPSWYQQTPGQAPRTLIYSTNTRSSGVPDRFSGSILGNKAALTITGAQADDESDYYCVLYMGSGQYVFGGGTKLTVLGHHHHHH | 6.4 µg/mL | – | – | – | – | – | – | – | –
2 | hERB-RNase (Erbicin fused to human pancreatic ribonuclease) (other) QVQLLQSAAEVKKPGESLKISCKGSGYSFTSYWIGWVRQMPGKGLEWMGIIYPGDSDTRYSPSFQGQVTISADKSISTAYLQWSSLKASDTAVYYCARWRDSPLWGQGTLVTVSSGGGGSGGGGSGGSALQAVVTQEPSFSVSPGGTVTLTCGLSSGSVSTSYYPSWYQQTPGQAPRTLIYSTNTRSSGVPDRFSGSILGNKAALTITGAQADDESDYYCVLYMGSGQYVFGGGTKLTVLGAAASGGPEGGSKESRAKKFQRQHMDSDSSPSSSSTYCNQMMRRRNMTQGRCKPVNTFVHEPLVDVQNVCFQEKVTCKNGQGNCYKSNSSMHITDCRLTNGSRYPNCAYRTSPKERHIIVACEGSPYVPVHFDASVEDST | ~20 nM | – | – | – | – | – | – | – | –
3 | Ph-Erbicin (human anti-ErbB2 scFv from type A clone, displayed on phage) (scFv, Tested as whole phage particles carrying the scFv; also called A type phage clone; clone A) scFv: QVQLLQSAAEVKKPGESLKISCKGSGYSFTSYWIGWVRQMPGKGLEWMGIIYPGDSDTRYSPSFQGQVTISADKSISTAYLQWSSLKASDTAVYYCARWRDSPLWGQGTLVTVSSGGGGSGGGGSGGSALQAVVTQEPSFSVSPGGTVTLTCGLSSGSVSTSYYPSWYQQTPGQAPRTLIYSTNTRSSGVPDRFSGSILGNKAALTITGAQADDESDYYCVLYMGSGQYVFGGGTKLTVLG | 2.8e+10 cfu/ml | 2.5e+11 | 1.4e+11 | 3.5e+11 | 4e+11 | 1.2e+10 | no binding | 0.0013 | ~5000
